Series [1] concerns the molecule itself. Kind of series: SEC-MALS; Superdex 75 (10/300 GL) followed online by MALLS; 20 mM Tris/HCl pH 7.5, 250 mM NaCl, 5 mM MgCl2.
Substrate in the series “purified protein”: CC(=O)Oc1ccc([N+](=O)[O-])cc1
As to the kind of experiment: purified protein. The series is classed as biochemical, Danio rerio. To be noted: 20 mM Tris/HCl pH 7.5, 250 mM NaCl, 5 mM MgCl2, 25°C.

B1: ZfL2-1_CC, N-terminal construct comprising the coiled coil domain of the ZfL2-1 ORF1p (M15-T91) (domain or fragment, Danio rerio (zebrafish), UniProt Q3LG57 15-91, looked up)
chain: MEALELELEEVESQIRALVVRRSRLRERLLAVPNAKAVSSPKVRGNYNHIIPSTSTPRPSLSRPSAPGARLSQASFT
notes: ORF1 protein (ORF1p) of the ZfL2-1 non-LTR retrotransposon, Danio rerio, Uniprot Q3LG57, residues M15-T91; Expressed from pETM41P from a codon-optimized synthetic template
Turning to B1, the “stoichiometry N” value in series [1] came out at 2.

B2: ZfL2-1 esterase (ZfL2-1_ES) (Danio rerio) (protein)
chain: DVAIIGDSIVRHVRAASSKGNKVRTFCFPGARVKNISTQIPTILGAAESPGAVVLHVGTNDTGLRQSEILKKDFRSLIETVRRTSPATQIIVSGPLPTYRRGNERFSRLLALNEWLITWCKEQKLLFANNWNLFWERPRLFRPDGLHPSRAGAELLSDNISRLLRTI
notes: esterase domain D136-I302, codon-optimized synthetic gene, pETM41P, E. coli BL21-Star; 19 kDa monomer (MBP apparently removed)
In the case of B2, in “purified protein”, the Km turned out to be 430 ± 100 µM and the kcat was 0.32 ± 0.07 s⁻¹.

For the origin of these results see publication PMC3905857, “Structure and properties of the esterase from non-LTR retrotransposons suggest a role for lipids in retrotransposition” (Nucleic Acids Research, 2013).
